This is an account of results in US20090191117A1 (published 2009).

The target in test [1] is T1, human αVβ5 integrin, purified (human, UniProt P06756 31-1048; P18084 24-799).
T1 construct: Bought from Chemicon (Triton or octyl formulation); also called alphaVbeta5; aVb5
Put plainly: saturation binding ELISA on αvβ5 coated plate, non-linear fit, six experiments.
Procedure: (§1) αᵥβ₃ or αᵥβ₅ integrin was diluted to 1 μg/ml in Tris-buffered saline (TBS, 10 mM Tris, 100 mM NaCl, pH 7.5) containing 2 mM calcium chloride (TBS/Ca⁺⁺) and coated at 50 μl per well onto 96 well polystyrene Linbro plates (Flow/ICN) overnight at 4° C. Plates were washed with TBS/Ca⁺⁺ and blocked with 1% bovine serum albumin (BSA) in TBS/Ca⁺⁺ for 1 h at room temperature. Fifty microliters of diluted antibody was added in triplicate to coated wells and incubated for 2 h at 37° C. […] Plates were washed three times, and developed with o-phenylenediamine dihydrochloride substrate solution (OPD, Sigma) consisting of 0.1 M citric acid, 0.2M sodium phosphate, 0.01% H₂O₂ and 1 mg/ml OPD. Color development was stopped after 15 min at room temperature with 0.3 N H₂SO₄, and plates were read at OD₄₉₀ nm in the Molecular Dynamics plate reader.

Test [2] concerns the target T2, αvβ5 integrin on HT-29 human colon carcinoma cells (human, UniProt P06756 31-1048; P18084 24-799).
T2 construct: whole, on cells; also called HT-29 cells; HT29 cells
The experiment in a line: 125-I antibody saturation binding to HT-29 cells.
Procedure: (§2) Cells were plated 2 days prior to experiment, and 1×10⁵ cells/well at the time of study. […] Nonspecific binding was determined using 100× cold mAb in media. Cells were washed 3× and counted for bound radioactivity. Each curve represents 4-5 separate studies, and each data point in an experiment was the mean of triplicate samples.

Test [3] concerns the target T3, human αVβ3 integrin, purified (human, UniProt P06756 31-1048; P05106 27-788).
T3 construct: mature; Detergent-extracted heterodimer purified from human placenta at Centocor, or bought from Chemicon; coated on plates or in solution; also called alphaVbeta3; aVb3
The experiment in a line: saturation binding ELISA on αvβ3 coated plate, non-linear fit, n = 6.
Procedure: as §1

The target of test [4] is T1, human αVβ5 integrin, purified. The experiment in a line: comparison of the KD values on integrin coated plates.
Test [5] concerns the target T3, human αVβ3 integrin, purified. Put plainly: EIA, purified antibody titrated on αVβ3 coated plates.
Test [6] concerns the target T2, αvβ5 integrin on HT-29 human colon …. Put plainly: 125-I antibody saturation binding to HT-29 cells, rounded value.
Procedure: as §2
Test [7] addresses T4, integrin aIIbb3 from human placenta extract (human, UniProt P08514 32-1039; P05106 27-788).
T4 construct: mature; only the aIIb subunit was probed; also called aIIbβ3; GPIIb/IIIa
Put plainly: CNTO 95 affinity column on human placenta extract, Western blot with anti-aIIb.
Procedure: (§3) Western blot. […] The filters were blocked with 5% nonfat dry milk in TBS containing 0.05% Tween 20 (wash buffer) at room temperature for 1 hour and then incubated with anti-integrin antibodies (anti-a5 (P-19) Santa Cruz, goat polyclonal IgG 1:500 dilution; anti-aIIb, Chemicon, mouse monoclonal IgG1, 1:1000 dilution; anti-αV (Q-20), Santa Cruz, goat polyclonal IgG, 1:500 dilution; anti-b1 (4B7R), Santa Cruz, mouse monoclonal IgG1, 1:500 dilution; anti-b1 (N-20), Santa Cruz, goat polyclonal IgG, 1:500 dilution; anti-β3 (H-96), Santa Cruz, rabbit polyclonal IgG, 1:500 dilution; anti-β5 (H-96), Santa Cruz, rabbit polyclonal IgG, 1:500 dilution; anti-β6 (H-110), Santa Cruz, rabbit polyclonal IgG, 1:250 dilution). After thorough washing, filters were incubated with appropriate peroxidase-conjugated secondary antibodies (1:20000 dilution). The antigen-antibody complexes were visualized using SuperSignal West Pico Chemiluminescent Substrate kit (Pierce).

For test [8], the target named is T1, human αVβ5 integrin, purified. Put plainly: saturation binding ELISA on αvβ5 coated plate, non-linear fit, n = 6.
Procedure: as §1
Test [9] deals with T2, αvβ5 integrin on HT-29 human colon …. Put plainly: 125-I antibody saturation binding to HT-29 cells, n = 5.
Procedure: as §2
Test [10] deals with T5, integrin a5b1 from human placenta extract (human, UniProt P08648 42-1049; P05556 21-798).
T5 construct: mature; only the a5 subunit was probed; also called a5 containing heterodimers
The experiment in a line: CNTO 95 affinity column on human placenta extract, Western blot with anti-integrin a5.
Procedure: as §3

T2 sequence (P06756 31-1048, chain 1 of 2): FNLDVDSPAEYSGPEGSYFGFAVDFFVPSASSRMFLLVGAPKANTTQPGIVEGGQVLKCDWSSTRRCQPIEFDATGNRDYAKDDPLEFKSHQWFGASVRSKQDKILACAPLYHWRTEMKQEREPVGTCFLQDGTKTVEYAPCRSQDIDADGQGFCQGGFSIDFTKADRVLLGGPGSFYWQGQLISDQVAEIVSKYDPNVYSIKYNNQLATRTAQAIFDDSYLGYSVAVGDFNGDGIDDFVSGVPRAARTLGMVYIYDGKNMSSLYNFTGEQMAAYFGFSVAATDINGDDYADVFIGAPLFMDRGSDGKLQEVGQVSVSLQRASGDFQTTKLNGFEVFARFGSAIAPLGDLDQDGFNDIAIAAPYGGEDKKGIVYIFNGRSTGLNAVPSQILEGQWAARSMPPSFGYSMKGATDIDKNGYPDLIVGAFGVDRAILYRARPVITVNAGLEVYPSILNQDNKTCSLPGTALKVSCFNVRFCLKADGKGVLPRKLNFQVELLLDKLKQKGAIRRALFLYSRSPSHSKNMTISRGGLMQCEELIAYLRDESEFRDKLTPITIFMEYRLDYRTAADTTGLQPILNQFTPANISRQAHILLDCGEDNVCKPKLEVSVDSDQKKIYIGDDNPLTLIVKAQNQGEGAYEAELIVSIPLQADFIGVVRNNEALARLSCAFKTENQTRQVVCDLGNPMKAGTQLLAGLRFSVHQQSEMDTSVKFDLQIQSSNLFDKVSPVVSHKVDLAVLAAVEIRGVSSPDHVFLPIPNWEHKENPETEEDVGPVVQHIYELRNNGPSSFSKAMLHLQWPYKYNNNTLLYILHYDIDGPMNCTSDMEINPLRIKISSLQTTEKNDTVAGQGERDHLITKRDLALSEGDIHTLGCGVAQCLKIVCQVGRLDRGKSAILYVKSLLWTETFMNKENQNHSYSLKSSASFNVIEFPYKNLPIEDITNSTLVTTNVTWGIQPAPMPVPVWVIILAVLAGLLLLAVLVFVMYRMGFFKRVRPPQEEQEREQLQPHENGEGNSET
T2 sequence (P18084 24-799, chain 2 of 2): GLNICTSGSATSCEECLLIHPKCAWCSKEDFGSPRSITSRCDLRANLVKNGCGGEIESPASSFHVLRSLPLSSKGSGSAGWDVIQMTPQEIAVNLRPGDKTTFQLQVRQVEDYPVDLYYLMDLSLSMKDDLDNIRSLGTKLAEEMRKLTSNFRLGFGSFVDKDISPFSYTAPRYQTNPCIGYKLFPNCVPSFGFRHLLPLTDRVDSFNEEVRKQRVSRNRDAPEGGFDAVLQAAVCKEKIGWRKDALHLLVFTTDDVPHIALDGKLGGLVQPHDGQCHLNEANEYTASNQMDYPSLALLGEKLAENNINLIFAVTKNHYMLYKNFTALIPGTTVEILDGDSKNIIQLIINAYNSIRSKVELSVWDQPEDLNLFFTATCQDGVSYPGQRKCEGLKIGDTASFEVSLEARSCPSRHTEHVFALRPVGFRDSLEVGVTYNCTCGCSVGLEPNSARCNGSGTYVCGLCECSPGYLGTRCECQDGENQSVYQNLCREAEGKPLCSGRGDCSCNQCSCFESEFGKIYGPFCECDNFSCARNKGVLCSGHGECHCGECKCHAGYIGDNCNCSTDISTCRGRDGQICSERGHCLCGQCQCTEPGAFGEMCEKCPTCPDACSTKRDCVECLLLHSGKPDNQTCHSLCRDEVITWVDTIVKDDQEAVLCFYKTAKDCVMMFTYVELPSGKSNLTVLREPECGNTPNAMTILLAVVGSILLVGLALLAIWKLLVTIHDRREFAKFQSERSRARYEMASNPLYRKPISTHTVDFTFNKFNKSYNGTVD
T1 sequence (P06756 31-1048, form in doubt, chain 1 of 2): as the sequence (P06756 31-1048, chain 1 of 2) above
T1 sequence (P18084 24-799, form in doubt, chain 2 of 2): as the sequence (P18084 24-799, chain 2 of 2) above
T3 sequence (P06756 31-1048, form in doubt, chain 1 of 2): as the sequence (P06756 31-1048, chain 1 of 2) above
T3 sequence (P05106 27-788, form in doubt, chain 2 of 2): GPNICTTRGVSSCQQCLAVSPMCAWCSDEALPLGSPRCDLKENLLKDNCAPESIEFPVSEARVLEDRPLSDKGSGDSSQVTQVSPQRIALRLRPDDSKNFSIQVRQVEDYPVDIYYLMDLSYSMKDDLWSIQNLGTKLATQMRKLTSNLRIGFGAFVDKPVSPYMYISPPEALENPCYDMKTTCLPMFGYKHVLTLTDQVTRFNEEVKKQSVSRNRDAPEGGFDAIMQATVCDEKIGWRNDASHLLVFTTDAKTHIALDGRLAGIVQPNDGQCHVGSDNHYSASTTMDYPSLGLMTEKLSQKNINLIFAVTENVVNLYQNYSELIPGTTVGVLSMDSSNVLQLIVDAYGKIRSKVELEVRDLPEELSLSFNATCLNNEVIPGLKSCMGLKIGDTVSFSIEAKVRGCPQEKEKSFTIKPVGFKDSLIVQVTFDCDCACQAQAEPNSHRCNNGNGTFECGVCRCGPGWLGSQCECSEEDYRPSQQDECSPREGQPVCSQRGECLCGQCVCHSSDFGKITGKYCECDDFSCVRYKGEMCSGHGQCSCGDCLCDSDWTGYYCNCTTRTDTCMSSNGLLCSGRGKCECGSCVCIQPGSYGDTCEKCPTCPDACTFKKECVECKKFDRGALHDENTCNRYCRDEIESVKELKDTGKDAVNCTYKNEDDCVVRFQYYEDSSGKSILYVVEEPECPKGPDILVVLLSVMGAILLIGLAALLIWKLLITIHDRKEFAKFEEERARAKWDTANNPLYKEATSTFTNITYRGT
T5 sequence (P08648 42-1049, chain 1 of 2): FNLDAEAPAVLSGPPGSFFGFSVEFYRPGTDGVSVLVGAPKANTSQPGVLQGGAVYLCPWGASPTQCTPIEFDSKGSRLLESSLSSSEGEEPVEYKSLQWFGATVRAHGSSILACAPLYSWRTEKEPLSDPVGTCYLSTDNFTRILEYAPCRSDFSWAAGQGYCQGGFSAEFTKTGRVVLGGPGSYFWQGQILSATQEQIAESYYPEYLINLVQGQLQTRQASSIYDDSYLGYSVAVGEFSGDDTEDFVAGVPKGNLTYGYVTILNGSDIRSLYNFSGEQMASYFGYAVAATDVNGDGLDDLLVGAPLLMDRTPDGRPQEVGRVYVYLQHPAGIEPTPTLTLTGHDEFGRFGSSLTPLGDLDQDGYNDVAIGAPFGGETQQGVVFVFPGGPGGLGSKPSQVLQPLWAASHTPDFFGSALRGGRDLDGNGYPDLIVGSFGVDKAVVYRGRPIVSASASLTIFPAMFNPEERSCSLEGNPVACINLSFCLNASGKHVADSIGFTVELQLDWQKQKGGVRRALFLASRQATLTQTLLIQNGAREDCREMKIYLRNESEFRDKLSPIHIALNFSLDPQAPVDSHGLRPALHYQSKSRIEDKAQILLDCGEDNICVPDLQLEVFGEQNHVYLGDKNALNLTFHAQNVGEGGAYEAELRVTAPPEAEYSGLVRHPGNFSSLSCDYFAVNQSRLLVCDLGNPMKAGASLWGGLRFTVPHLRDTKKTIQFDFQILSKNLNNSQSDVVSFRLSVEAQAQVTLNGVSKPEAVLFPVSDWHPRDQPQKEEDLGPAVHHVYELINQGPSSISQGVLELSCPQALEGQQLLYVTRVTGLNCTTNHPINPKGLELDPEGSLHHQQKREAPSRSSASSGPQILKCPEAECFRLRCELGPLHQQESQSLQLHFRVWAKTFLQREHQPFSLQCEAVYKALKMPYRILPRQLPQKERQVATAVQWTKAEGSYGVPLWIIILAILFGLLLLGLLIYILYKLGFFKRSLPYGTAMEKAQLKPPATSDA
T5 sequence (P05556 21-798, chain 2 of 2): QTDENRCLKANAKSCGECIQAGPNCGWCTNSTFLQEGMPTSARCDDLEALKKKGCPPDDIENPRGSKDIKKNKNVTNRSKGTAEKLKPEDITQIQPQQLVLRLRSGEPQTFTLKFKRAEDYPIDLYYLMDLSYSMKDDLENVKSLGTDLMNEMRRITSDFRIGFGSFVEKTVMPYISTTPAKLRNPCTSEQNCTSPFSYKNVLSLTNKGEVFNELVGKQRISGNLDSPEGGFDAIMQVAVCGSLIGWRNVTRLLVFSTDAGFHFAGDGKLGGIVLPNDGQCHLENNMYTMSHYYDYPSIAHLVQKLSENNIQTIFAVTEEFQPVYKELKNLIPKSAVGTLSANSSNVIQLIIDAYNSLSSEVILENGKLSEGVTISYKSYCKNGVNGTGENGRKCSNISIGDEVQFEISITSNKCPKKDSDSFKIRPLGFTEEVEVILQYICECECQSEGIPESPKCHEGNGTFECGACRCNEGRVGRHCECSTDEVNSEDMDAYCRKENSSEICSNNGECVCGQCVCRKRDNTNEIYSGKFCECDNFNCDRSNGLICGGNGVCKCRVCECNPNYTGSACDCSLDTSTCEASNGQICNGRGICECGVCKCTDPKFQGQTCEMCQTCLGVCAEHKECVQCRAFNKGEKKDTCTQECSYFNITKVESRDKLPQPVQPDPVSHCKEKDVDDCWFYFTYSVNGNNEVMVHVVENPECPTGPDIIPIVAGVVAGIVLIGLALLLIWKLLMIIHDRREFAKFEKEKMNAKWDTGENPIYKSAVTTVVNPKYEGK

B1: CNTO 95 (antibody, V domains shown)
VH: QVQLVESGGGVVQPGRSRRLSCAASGFTFSRYTMHWVRQAPGKGLEWVAVISFDGSNKYYVDSVKGRFTISRDNSENTLYLQVNILRAEDTAVYYCAREARGSYAFDIWGQGTMVTVSS
VL: EIVLTQSPATLSLSPGERATLSCRASQSVSSYLAWYQQKPGQAPRLLIYDASNRATGIPARFSGSGSGTDFTLTISSLEPEDFAVYYCQQRSNWPPFTFGPGTKVDIK
notes: Fully human IgG1 kappa from a transgenic mouse hybridoma; also called GenO95; C371A
For B1, the Kd in test [1] was 25 pM; in [2], 130 pM; in test [3], 210 pM; in [6], 1000 pM; in test [8], 250 pM; in test [9] it was 1300 pM. Besides, in test [4], the “fold higher affinity than for αvβ3 purified integrin” value was ~8 fold. Further, in [5], the half-maximal effective concentration (EC50) is 0.7 µg/mL. Further, the binding result in [7] and in test [10] was “no binding” throughout.
